Where two headings read alike, the source gives them in different places.

Test in all cases: EMSA
Series [1] has as its target T1, RBPMS isoform A (Homo sapiens, UniProt Q93062 1-196).
In series [2] the target is T1, RBPMS isoform A. The source holds these as a separate data set.
Another series deals with RBPMS 1-100 (Homo sapiens, UniProt Q93062 1-100).
The target of series [3] is T2, RBPMS2 (UniProt Q6ZRY4 1-209).
A further series deals with RBPMS 1-144 (Homo sapiens, UniProt Q93062 1-144).
The target in series [4] is T2, RBPMS2. The source holds these as a separate data set.
Series [5] concerns the target T1, RBPMS isoform A. This is another data set of the same source.

T2 sequence (Q6ZRY4 whole entry): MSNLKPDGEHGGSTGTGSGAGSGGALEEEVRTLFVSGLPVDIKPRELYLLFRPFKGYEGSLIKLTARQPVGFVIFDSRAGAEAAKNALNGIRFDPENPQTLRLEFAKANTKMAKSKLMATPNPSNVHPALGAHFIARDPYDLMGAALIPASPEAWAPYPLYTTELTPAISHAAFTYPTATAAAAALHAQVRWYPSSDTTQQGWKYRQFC

On to AGAGAGAGAGAGAGAGAG (ssRNA) [(AG)9], for which, in the series with RBPMS isoform A [1], the binding result was “no binding”.
Consider ACACACACACACACACAC (ssRNA) [(AC)9], for which the binding result in the series with RBPMS isoform A [2] was “binds”; with RBPMS 1-100 it was “no binding”; with RBPMS2 [3], “binds”; with RBPMS 1-144, “binds”.
Turning to CCCUCACUCACCAAACACGUG (ssRNA) [UBE2V1 or SRM 21-nt wt (b)], the binding result in the series with RBPMS isoform A [1] is on record as “binds”.
Consider AGGCACUUUCAACUUCACUCC (ssRNA) [ETF1 21-nt wt], for which the binding result with RBPMS isoform A [1] and with RBPMS2 [4] was “binds” in each case.
Take GCCGCCGCCGCCGCCGCC (ssRNA) [(GCC)6]: the binding result with RBPMS isoform A [1] is listed as “no binding”.
In the case of UUUUUUUUUUUUUUUUUU (ssRNA) [U18], in the series with RBPMS isoform A [1], the binding result is given as “no binding”.
Same read-out and setting: then UACUCACUCACUCUCCACGAG (ssRNA) [UBE2V1 or SRM 21-nt wt (a)], with “binds”.
Regarding CACCACCACCACCACCAC (ssRNA) [(CAC)6], the binding result with RBPMS isoform A [1] and with RBPMS2 [3] was “binds” in each case.
Regarding CAUCAUCAUCAUCAUCAU (ssRNA) [(CAU)6], the binding result with RBPMS isoform A [1] and with RBPMS2 [3] was “no binding” throughout.
Regarding CUCUCUCUCUCUCUCUCU (ssRNA) [(CU)9], the binding result in the series with RBPMS isoform A [1] and in the series with RBPMS2 [3] was “no binding” throughout.
For the molecule AAAAAAAAAAAAAAAAAA (ssRNA) [A18], in the series with RBPMS isoform A [1], the binding result is recorded as “no binding”.
On to ACACACACACACAC (ssRNA) [(AC)7], for which the binding result in the series with RBPMS isoform A [5] is listed as “binds”.
As for GGCGGCGGCGGCGGCGGC (ssRNA) [(GGC)6], in the series with RBPMS isoform A [1], the binding result is recorded as “no binding”.

The values are drawn from article PMC4114688.
